{"source": "paper PMC8805299", "about": "“Determining the oxidation state of elements by X-ray crystallography” (Acta Crystallographica. Section D, Structural Biology, 2022)", "proteins": {"B1": {"name": "Sulfolobus tokodaii sulerythrin reconstituted with ferrous iron (diFe-SulE) (natural protein, UniProt F9VPE5 1-144, looked up)", "chain": "MKDLKGTKTAENLKQGFIGESMANRRYLYFAKRADEEGYPEIAGLLRSIAEGETAHAFGHLDFIRQGGLTDPATDKPIGTLEQMIESAIAGETYEWTQMYPGFAKVAREEGFPEVAEWFETLARAEKSHAEKFQNVLKQLKGGT", "notes": "Sulerythrin (SulE), Sulfolobus tokodaii, UniProt F9VPE5, residues 1-145; synthetic gene in pET-28a with an N-terminal Strep-tag and a TEV protease site; Domain-swapped homodimer; each of its two binuclear metal sites holds two iron ions (four in all); Crystals were treated with 100 mM H2O2; not shown: Strep-tag, N-terminal, cleaved"}}, "molecular_target": "the molecule itself", "assay": "crystal structure; diFe-SulE crystals grown anoxically in 0.1 M bis-Tris pH 5.5, 24% (w/v) PEG 3350 at 293 K, treated with 100 mM H2O2; data at 100 K; space group P63; three data sets at 5%, 10% and 100% beamline flux"}
{"protein": "B1", "values": [{"measurement": "stoichiometry N", "result": 2}]}
